Data on seven sequences can be found in the Immune Epitope Database (IEDB).

One test deals with HLA-B*40:02. Briefly: IEDB peptide-MHC binding, cellular MHC/competitive/fluorescence; ≥ and ≤ were set here for values at or beyond the usual limits of such assays. The settings on record: source organism: Homo sapiens.
The target of test [1] is HLA-A*01:01. As to the kind of experiment: IEDB peptide-MHC binding, purified MHC/direct/fluorescence; filed as Kd, often an IC50 or EC50 that approximates it; ≥ and ≤ were set here for values at or beyond the usual limits of such assays. The settings on record: source organism: Vibrio cholerae.
The next test concerns the target HLA-A*02:01. The description is as above. The settings on record: source organism: Vibrio cholerae.
The target of another test is HLA-A*03:01. The test is described as above. The settings on record: source organism: Vibrio cholerae.
In another test the target is HLA-A*11:01. The description is as above. The note with it: source organism: Vibrio cholerae.
For a further test, the target named is HLA-A*26:01. The description is as above. The settings on record: source organism: Vibrio cholerae.
The target of the next test is HLA-A*31:01. The test is described as above. The note with it: source organism: Vibrio cholerae.
For the next test, the target named is HLA-A*69:01. Described as above.
Test [2] addresses HLA-B*07:02. The description is as above. The note with it: source organism: Vibrio cholerae.
In the next test the target is HLA-B*08:01. The description is as above. The settings on record: source organism: Vibrio cholerae.
In the next test the target is HLA-B*15:01. Described as above. The note with it: source organism: Vibrio cholerae.
For another test, the target named is HLA-B*27:05. The test is described as above. The note with it: source organism: Vibrio cholerae.
Test [3] concerns the target HLA-B*35:01. Described as above. The note with it: source organism: Vibrio cholerae.
The target in the next test is HLA-B*40:01. The test is described as above. The note with it: source organism: Vibrio cholerae.
The target in the next test is HLA-B*44:02. Described as above. The settings on record: source organism: Vibrio cholerae.
A further test concerns the target HLA-B*58:01. The test is described as above. The settings on record: source organism: Vibrio cholerae.
The target in test [4] is HLA-C*06:02. The test is described as above. The settings on record: source organism: Vibrio cholerae 2740-80.
The target of the next test is HLA-C*12:03. Described as above. The settings on record: source organism: Vibrio cholerae 2740-80.
A further test concerns the target HLA-A*02:50. Briefly: IEDB peptide-MHC binding, purified MHC/competitive/fluorescence; filed as Kd, often an IC50 or EC50 that approximates it; ≥ and ≤ were set here for values at or beyond the usual limits of such assays. The note with it: source organism: Vibrio cholerae 2740-80.
The target in the next test is HLA-B*46:01. The description is as above.
The target of test [5] is HLA-B*35:01. As to the kind of experiment: IEDB peptide-MHC binding, purified MHC/competitive/radioactivity; ≥ and ≤ were set here for values at or beyond the usual limits of such assays. The note with it: source organism: Human papillomavirus 16.
The target in test [6] is HLA-A*01:01. Briefly: IEDB peptide-MHC binding, purified MHC/competitive/fluorescence; filed as Kd, often an IC50 or EC50 that approximates it; ≥ and ≤ were set here for values at or beyond the usual limits of such assays. The note with it: source organism: Rattus norvegicus.
For another test, the target named is HLA-A*29:02. Described as above. The note with it: source organism: Rattus norvegicus.
The next test has as its target HLA-A*80:01. The description is as above. The settings on record: source organism: Rattus norvegicus.
In another test the target is HLA-B*15:42. The description is as above.
The next test concerns the target HLA-B*45:06. The test is described as above.
For the next test, the target named is HLA-B*83:01. The test is described as above.
The next test concerns the target HLA-C*04:01. The description is as above. The note with it: source organism: Rattus norvegicus.
Another test addresses HLA-C*14:02. The description is as above.
The target of test [7] is HLA-B*07:02. As to the kind of experiment: IEDB peptide-MHC binding, purified MHC/competitive/radioactivity; ≥ and ≤ were set here for values at or beyond the usual limits of such assays. The settings on record: source organism: dengue virus type 4.
Test [8] addresses HLA-B*35:01. As to the kind of experiment: IEDB peptide-MHC binding, purified MHC/competitive/radioactivity; filed as Kd, often an IC50 or EC50 that approximates it; ≥ and ≤ were set here for values at or beyond the usual limits of such assays. The note with it: source organism: Dengue virus 4 Philippines/H241/1956.
In a further test the target is HLA-B*53:01. The test is described as above. The note with it: source organism: Dengue virus 4 Philippines/H241/1956.
Another test addresses HLA-A*02:03. As to the kind of experiment: IEDB peptide-MHC binding, purified MHC/direct/fluorescence; filed as Kd, often an IC50 or EC50 that approximates it; ≥ and ≤ were set here for values at or beyond the usual limits of such assays. The settings on record: source organism: Mycobacterium tuberculosis str. Haarlem.
For the next test, the target named is HLA-C*05:01. The description is as above. The note with it: source organism: Mycobacterium tuberculosis variant bovis BCG str. Pasteur 1173P2.
The target in the next test is HLA-C*08:02. The test is described as above.
The target of the next test is HLA-A*32:15. Briefly: IEDB peptide-MHC binding, purified MHC/competitive/fluorescence; filed as Kd, often an IC50 or EC50 that approximates it; ≥ and ≤ were set here for values at or beyond the usual limits of such assays. The note with it: source organism: Mycobacterium tuberculosis variant bovis BCG str. Pasteur 1173P2.
The next test has as its target HLA-C*15:02. Briefly: IEDB peptide-MHC binding, purified MHC/direct/fluorescence; filed as Kd, often an IC50 or EC50 that approximates it; ≥ and ≤ were set here for values at or beyond the usual limits of such assays. The settings on record: source organism: Corynebacterium glutamicum ATCC 13032.
The target in another test is HLA-A*68:23. Briefly: IEDB peptide-MHC binding, purified MHC/competitive/fluorescence; filed as Kd, often an IC50 or EC50 that approximates it; ≥ and ≤ were set here for values at or beyond the usual limits of such assays. The note with it: source organism: Corynebacterium glutamicum ATCC 13032.
Test [9] concerns the target HLA-C*06:02. The description is as above. The note with it: source organism: Corynebacterium glutamicum ATCC 13032.
[10] abbreviates: source organism: Rattus norvegicus.
Setting [11] is: source organism: Mycobacterium tuberculosis.
[12] abbreviates: source organism: Mycobacterium tuberculosis variant bovis BCG str. Pasteur 1173P2.
The mark [13] stands for this setting: source organism: Corynebacterium glutamicum ATCC 13032.

By IC50 is commonly meant the concentration that gives 50% inhibition. On to SELSPGRSV, for which the IC50 with HLA-B*40:02 is 1100 nM.

As a reminder, the Kd is a measure of binding affinity in units of concentration. As to MMFDAMGAL, the dissociation constant Kd with HLA-A*01:01 [1] is 11200 nM; with HLA-A*02:01, 328 nM; in the test with HLA-A*03:01, 1460 nM; in the test with HLA-A*11:01 it was 9310 nM; in the test with HLA-A*26:01 it was 1230 nM; with HLA-A*31:01 it was 921 nM. Besides, the Kd with HLA-A*69:01 (source organism: Vibrio cholerae) was 33.1 nM; with HLA-B*07:02 [2] it was 5750 nM; in the test with HLA-B*08:01, 5760 nM; with HLA-B*15:01, 37.2 nM; in the test with HLA-B*27:05, not below 20000 nM; in the test with HLA-B*35:01 [3], 18.4 nM. Further, the Kd was not below 20000 nM in the test with HLA-B*40:01; not below 20000 nM with HLA-B*44:02; not below 20000 nM with HLA-B*58:01; 1480 nM with HLA-C*06:02 [4]; 46 nM with HLA-C*12:03; 0.2 nM with HLA-A*02:50. Moreover, the Kd with HLA-B*46:01 (source organism: Vibrio cholerae 2740-80) was determined as 22.7 nM.

With SAFRCFIVY, in the test with HLA-B*35:01 [5], the IC50 came to 1.4 nM.

As to YYRYPTGESY, the Kd was not below 20000 nM with HLA-A*01:01 [6]; not above 0.1 nM with HLA-A*29:02; 1460 nM in the test with HLA-A*80:01; not below 5000 nM in the test with HLA-B*15:42 (setting [10]); not below 5000 nM with HLA-B*45:06 (setting [10]); not below 5000 nM in the test with HLA-B*83:01 (setting [10]). Moreover, the results for the Kd with HLA-C*04:01 and with HLA-C*14:02 (setting [10]) were not below 5000 nM and not above 0.1 nM, respectively.

On to LPSIVREAL, for which, in the test with HLA-B*07:02 [7], the IC50 stood at 0.31 nM. Moreover, the Kd is 82.8 nM with HLA-B*35:01 [8] and 40.6 nM with HLA-B*53:01.

FMFDYIPPV: the Kd in the test with HLA-A*02:03 was not above 1 nM; in the test with HLA-A*69:01 (setting [11]), 1.3 nM; in the test with HLA-C*05:01, not below 20000 nM; with HLA-C*08:02 (setting [12]), 368 nM; with HLA-A*32:15, 203 nM; with HLA-B*15:42 (setting [12]) it was 3860 nM. In addition, the Kd with HLA-B*45:06 (setting [12]) is not below 5000 nM; with HLA-B*46:01 (setting [12]), 10.1 nM; in the test with HLA-B*83:01 (setting [12]), not below 5000 nM; with HLA-C*14:02 (setting [12]) it was 5.7 nM.

For RIFPATHYV, the Kd in the test with HLA-A*69:01 (setting [11]) is 18.8 nM; with HLA-C*08:02 (setting [13]) it was not below 20000 nM; in the test with HLA-C*15:02, 17 nM; in the test with HLA-A*68:23, 197 nM; in the test with HLA-B*15:42 (setting [13]), not below 5000 nM; in the test with HLA-B*45:06 (setting [13]), not below 5000 nM. In addition, the Kd with HLA-B*83:01 (setting [13]) is not below 5000 nM; in the test with HLA-C*06:02 [9], 35.7 nM.
